The text below walks through data of PMC11957774 (The Journal of Biological Chemistry, 2025).

This test addresses T1, MLL4 PHD2/3 fingers (aa 227-324), 15N-labeled (human, UniProt O14686 227-324, uniformly 15N-labeled).
T1 sequence (looked up): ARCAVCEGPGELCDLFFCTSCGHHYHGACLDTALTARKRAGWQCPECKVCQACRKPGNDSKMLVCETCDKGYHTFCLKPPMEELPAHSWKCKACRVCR
Put plainly: NMR titration.

For the molecule GWTGARTLADIKARALQVRGA (peptide, UniProt Q8IXJ9 607-627, looked up) [ASXL1 peptide (residues 607-627 of ASXL1), wild type], the binding result is reported as “binds”.

On to GWTGTRTLADIKARALQVRGA (peptide, UniProt Q8IXJ9 607-627, looked up) [ASXL1 peptide (residues 607-627 of ASXL1) A611T], for which the binding result is “binds”.

For the molecule NRTGAITLADIKAKAQLVKAQ (peptide, UniProt Q76L83 650-670, looked up) [ASXL2 peptide (residues 650-670 of ASXL2) R655I], the binding result is “binds”.
